# Experimental data reported in the supplement of paper PMC9170038.
# Tested on: MS2 coat protein
# Experiment: apparent KD of MS2 coat protein; designed switch direction (-1 OFF switch, 1 ON switch): 1; higher = weaker reporter binding
# Procedure, shortened: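 On Illumina chips, designed RNA switches with common flanks were made by stalled E. coli RNA polymerase. Titrations with SNAP-549-labelled MS2 coat protein, doubling from 0.7 or 1.5 nM to 3 µM, were done with no input, with 200 uM small-molecule ligand, or with an oligonucleotide input. Apparent KD is the median per design over clusters, from curve fits of normalised cluster fluorescence.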
# [1] = input ligand: microRNA oligo, concentration not stated
# [2] = Eterna round: R95, input ligand: microRNA oligo, concentration not stated
# [3] = Eterna round: R95, input ligand: FMN 200 uM
# [4] = Eterna round: R95, input ligand: none
Sequence,apparent KD of MS2 coat protein (input ligand: FMN 200 uM),apparent KD of MS2 coat protein [1],apparent KD of MS2 coat protein (input ligand: none),apparent KD of MS2 coat protein [2],apparent KD of MS2 coat protein [3],apparent KD of MS2 coat protein [4]
"CGUCGUUUGUUAGGAUAUCGCUAUACAUGAGGAUCACCCAUGUUUACCACGCUGGUUUUUCAUACCGAGAAGGAUUCUGAUGUU [salish99_SSNG02_r04_019] (Eterna round: R96, puzzle: Same State NG 2)",42.5 nM,31.6 nM,37.8 nM,–,–,–
"GCGAGCGUACUUGCUACAUGAGGAUCACCCAUGUUCAUUGGACAGGAUAUGGUACCGUUUCGGUACCAGAAGGGUUCAUCAUGU [JL SSNG3 3.73] (Eterna round: R96, puzzle: Same State NG 3)",1190 nM,26.6 nM,585 nM,–,–,–
"GCCGUAAACAUGAGGAUCACCCAUGUAAACGCGAGAGUGGAUGAGGAUAUCGAUGGGUUUCCCGUCGAGAAGGCGUGGGUCGGC [JL SSNG3 3.99] (Eterna round: R96, puzzle: Same State NG 3)",36.2 nM,31.8 nM,46.1 nM,–,–,–
"GUUCGGAAUCGAGCUGACAUGAGGAUCACCCAUGUUAGUGGGAAGGAUAUGGUACAGAAACUGUACCAGAAGGUCUUACUGUCU (Eterna round: R96, puzzle: Same State NG 3)",47 nM,66.7 nM,67.4 nM,–,–,–
"GGAGCCGGCCUAGGAUAUUUCAUAAAACAACAUGAGGAUCACCCAUGUAGGCCAGAAGGCCUUGGGAAGAAGGAGGUCGGCUCC [Loop Effect - C28] (Eterna round: R96, puzzle: Same State NG 2)",10.2 nM,19.7 nM,28.4 nM,–,–,–
GGAGAACAUGAGGAUCACCCAUGUGAGCGGUAGCUAGGAUAUGCGGGAAGGAAGAGAGAAGCAGAAGGAGUCGGUA [JR_SS1_Sub033] (puzzle: Same State 1),–,–,–,34.2 nM,–,–
"GGAAUAUUUACAGGAUAUGAGUUGUAAAGUCGAUCAGAAGGGUAGGUGUCUUGCACGGUGUGUUACAUGAGGAUCACCCAUGUU [SameState NG1 #21] (Eterna round: R96, puzzle: Same State NG 1)",156 nM,116 nM,128 nM,–,–,–
UCUAGACAUGAGGAUCACCCAUGUCGAUAUGGCGCAGGAUAUCGGUACUCAUAGAGUACGCGAGAAGGGUGACUUC [Same State 1 - Mod of Vinnie Gere v.2] (puzzle: Same State 1),–,–,–,173 nM,–,–
"GCACUCCAAGGAGCUGCGACAUGAGGAUCACCCAUGUAAUCACAGGAUAUGCGAUUCCGAAUUUUGCAGAAGGGUGAUAAGAAC [Ratele] (Eterna round: R96, puzzle: Same State NG 3)",139 nM,18 nM,106 nM,–,–,–
AGUCCAGCCUGAGCUGGACAAAAGCAUGUACAUGAGGAUCACCCAUGUCAUGUACAAGCUUUUUGCUCGUCAUAAAA [Mat - hsa-mir-208a - Mod of JL - D8] (puzzle: Sensor for hsa-mir-208a),–,–,–,14.7 nM,578 nM,651 nM
"UGUUGUAUUACAGGAUAUCUAUGAUUUUUAUUUAGAGAAGGGUAUUCACAUGAGGAUCACCCAUGUAUAUACGAGGAAGUUGUG [JMF's solution 11] (Eterna round: R96, puzzle: Same State NG 1)",–,36.8 nM,–,–,–,–
AGUCCAGCGAAAGCUGGACAAAAGCAUGUACAUGAGGAUCACCCAUGUUCGUGUACAAGCUUUUUGCUCGUCUUAAA [JL mod - D95 - 5] (puzzle: Sensor for hsa-mir-208a),–,–,–,14.6 nM,536 nM,554 nM
AAAAGUUGCGGGCAGGAUAUGUAUUAAAAUACAUGAGGAUCACCCAUGUGCGGGUAUAACACCCGACAGAAGGGCCAAUCGCGAC [Mat - Same State 2 - Mod of UCT - D95] (puzzle: Same State 2),–,–,–,160 nM,29.6 nM,226 nM
"ACAUGAAAUUGAGGAUAUUUUGUACCUACAUGUGACAUGAGGAUCACCCAUGUGGUAAGUAUAAGAAAGAAGGCAAAGAUAUGU [Equivalence 7 - Jieux - Same State NG 2] (Eterna round: R96, puzzle: Same State NG 2)",25.6 nM,30.8 nM,64.9 nM,–,–,–
GGGAAGAGGGACAAGGAUAUGUCAAAAGAGACAUGAGGAUCACCCAUGUGGAGGUUGGAGCAGAGACAGAAGGUGUACGGAGAGA [JR_SS2_Sub009] (puzzle: Same State 2),–,–,–,63 nM,69.7 nM,152 nM
AGUCCUGAAAAGAAAAUACAGAGACAUGUACAUGAGGAUCACCCAUGUCAUGUACAAGUUCUAUGCUCGUCAUAUAA [Sensorship 20 - Jieux - Sensor for hsa-mir-208a] (puzzle: Sensor for hsa-mir-208a),–,–,–,15.8 nM,22.4 nM,21 nM

Sequence,apparent KD of MS2 coat protein (input ligand: FMN 200 uM),apparent KD of MS2 coat protein [1],apparent KD of MS2 coat protein (input ligand: none),apparent KD of MS2 coat protein [2],apparent KD of MS2 coat protein [3],apparent KD of MS2 coat protein [4]
AUAAAACAUGAGGAUCACCCAUGUCAACAAAGUCGAGGAUAUGGGCAAAUAAAAUAAGAUCCAGAAGGCGAAUAAU [salish99_ss1_r3_016] (puzzle: Same State 1),–,–,–,36.3 nM,97.3 nM,92.7 nM
CAGUGCUGUUGAGAGGAUAUGCGGCGACGGACAUGAGGAUCACCCAUGUUAGCGACAGCGUUGCGGCAGAAGGCUCUGCCCGCUA [Soteed Omei mod 51] (puzzle: Same State 2),–,–,–,39.3 nM,–,–
GGUGAGAGAGUCAAGGAUAUGAAAGGAGAGACAUGAGGAUCACCCAUGUAAGAGAGAGAGGAGAGUUAGAAGGUGAAGAGAGUGG [Altered State 2-24 - Jieux - Same State 2] (puzzle: Same State 2),–,–,–,39.5 nM,42.7 nM,64.7 nM
"UUGAAGAAUUAAGGAUAUUGAUUACAUAUGUUUAACAUGAGGAUCACCCAUGUGGGUUGCGGUAUCGAGAAGGUAAAAUAAUAG [Mat - same State NG 2 - JL mod - D82] (Eterna round: R96, puzzle: Same State NG 2)",181 nM,231 nM,258 nM,–,–,–
"UUGUUUUGUAAUUAACAUGAGGAUCACCCAUGUCUUGGCUCAGAGGAUAUACAUGUUUGAUUGUAGUAGAAGGCUGAAUGUUGU [JR_SSNG3_Sub094] (Eterna round: R96, puzzle: Same State NG 3)",95.2 nM,96 nM,131 nM,–,–,–
CAGCGCUGUCGAGAGGAUAUGCGGUGAUGGACAUGAGGAUCACCCAUGUUAGCGACAGCAUCACGGCAGAAGGCUCUACCCGCUG [Soteed Omei mod 44] (puzzle: Same State 2),–,–,–,10.6 nM,–,–
"GAGCCAGUCCGAGGAUAUUCAUAUAAAUUAAAUACAUGAGGAUCACCCAUGUAGGCGGAGCCUUGGGAGAAGGCGGACUGGCUC [Xeonanisa>>5] (Eterna round: R96, puzzle: Same State NG 2)",22.7 nM,35.9 nM,58.4 nM,–,–,–
"AGAGGAGGAGCAGGAUAUUCGACGGAGGACGUGGAAGAAGGGUUCAUGCGAUGACAUGAGGAUCACCCAUGUACCGCGCGUCGA [AK SSNG1-V2-15.1] (Eterna round: R96, puzzle: Same State NG 1)",143 nM,106 nM,478 nM,–,–,–
GUAGAUGUAGAGGAGGAUAUUCAAUGAGGAACAUGAGGAUCACCCAUGUAAGAGAGAGAUGAUGAGAAGAAGGCUUAGAGAGAUG [Altered State 2-2 - Jieux - Same State 2] (puzzle: Same State 2),–,–,–,31.3 nM,32.3 nM,46 nM
"GGUAUCGACACAGGAUAUGCUAUCCUUUGGGUAGCAGAAGGGUGAACAUGAGGAUCACCCAUGUAGGUGCCAGGGCGUGAGCCC [JL SSNG1 1.79] (Eterna round: R96, puzzle: Same State NG 1)",368 nM,94.1 nM,787 nM,–,–,–
"GGUCCAGCCUGAGCUGGACAAAAGCAUGUACAUGAGGAUCACCCAUGUCAUGUACAAGCUUUUUGCUCGUCAUAAAU [Mat - hsa-mir-208a - 96] (Eterna round: R96, puzzle: Sensor for hsa-mir-208a)",573 nM,16.3 nM,435 nM,–,–,–
GAGUAGGAGUUACAGGAUAUAUGGAGGUGGACAUGAGGAUCACCCAUGUGAGAGAUGAGAGGAGGAUAGAAGGGUAAGGGAGUAA [JR_SS2_Sub029] (puzzle: Same State 2),–,–,–,153 nM,189 nM,486 nM
"UUAAUGAUGUAAGGAUAUACAUGAGGAUUUCUCGUAGAAGGUACAGGACAUGAGGAUCACCCAUGUAUCGCUCCGUAGAGCGUA [JL SSNG1 1.11] (Eterna round: R96, puzzle: Same State NG 1)",136 nM,292 nM,356 nM,–,–,–
"ACAAGCUUUUCUGUAUUGAAAGGUGGGAUACAUGAGGAUCACCCAUGUUUUUUUGUUUAUUUUUUUCCUCGUCUUAU [JR_SHM208A_Sub088] (Eterna round: R96, puzzle: Sensor for hsa-mir-208a)",46 nM,36.5 nM,37.2 nM,–,–,–
GGAGAACAUGAGGAUCACCCAUGUGGAUGAGCGCUAGGAUAUGCGGGAGGGUGAAGAGAAGCAGAAGGAGUAGAUA [JR_SS1_Sub034] (puzzle: Same State 1),–,–,–,99.6 nM,63.9 nM,180 nM
